The values below are quoted from earlier work in publication PMC4465285.

As usually defined, the Kd is the free concentration of one partner at which half of the binding sites on the other are occupied at equilibrium, for simple one-to-one binding.

For data set [1], the target named is F-actin (Saccharomyces cerevisiae) (UniProt P60010). The data set is described as follows: fluorescence titration and cosedimentation.
The target in data set [2] is F-actin (Oryctolagus cuniculus) (UniProt P68135).

Cofilin-1 (from UniProt P23528): in data set [1], the Kd is 16 nM.

As to Drebrin 1-300 (from UniProt Q16643), the Kd in data set [2] is 200 nM.
